Reference: patent US20100173005A1, “MICROPARTICLE FORMULATIONS FOR SUSTAINED-RELEASE OF BIOACTIVE COMPOUNDS” (POWDER PHARMACEUTICALS INCORPORATED, priority 1999, published 2010)

Legend:
[1] = Sustained release of lysozyme from sulfated dextran hydrogel beads: PBS wash then high salt elution, UV detection; type: physicochemical
Description: A preparation of cross-linked, sulfated dexan affinity chromatography resin beads were obtained from a commercial source (Sigma. St, Louis, Mo.). More particularly, 4% cross-linked sulfated beaded dextran was obtained as a lyophilized powder stabilized in lactose. The sulfate ligand will bind with a charged guest substance (e.g. a peptide or protein) at low salt concentration. This binding is reversible and the bound guest can be desorbed at a high salt concentration.
In the study, lysozyme (Sigma) was loaded into the beads using the techniques described in commonly held International Application No. PCT/GB00/00349.
Particularly, each gram of the sulfated dextran beads was washed with approximately 3×500 ml deionized water. Excess water was removed by vacuum filtration. A loading solution was prepared by dissolving 4.00 g lysozyme in 200 ml deionized water, yielding a 20 mg/ml solution. The loading solution was added to the hydrated dextran beads at a 1:1 ratio to provide a suspension. The suspension was stirred for one hour, and excess solution was drained from the hydrated beads. The loaded beads were then divided into two portions. The first portion (5.7 cc, experimental) was placed into a column (Econo column, BioRad, Hercules, Calif.) and washed with a phosphate buffered saline (PBS) solution (pH 7.4) for 19.6 hours, then eluted with 21.2 ml of a high salt elution buffer (1.0M ammonium sulfate, 50 mM sodium phosphate, pH 7.2). […] The amount of lysozyme released from the dextran beads during the PBS wash was determined by comparison against the amount of lysozyme eluted by the elution solution for both the experimental and the control portions.
Lysozyme concentration was determined using a UV detector (BioRad UV detector). A standard curve (UV absorption vs lysozyme concentration) was prepared by measuring the UV absorption of stock lysozyme solutions at different concentration ranging from 1 mg/ml to 4 mg/ml, Concentrations of the unknowns were then determined by extrapolation of the standard curve. […]

[2] = Repeat sustained release study of lysozyme from sulfated dextran beads: PBS elution at 0.84 ml/min, HPLC analysis; type: physicochemical
Description: The sustained release study described in the above Example was repeated except, in this instance, a different elution rate was used to determine if the rate of release of the lysozyme guest substance from the dextran is a function of the flow rate of the elution buffer.
More particularly, sulfated dextran beads were loaded with lysozyme as described in the above Example. The specifics of the loading were as follows: 42.4 g of the hydrated dextran beads was stirred in 100 ml of lysozyme solution (to yield a 20.11 mg/ml solution) for 1 hour. The loaded beads were then loaded into a column as described above for a further sustained release study.
For the PBS elution, the PBS wash (pH 7.4) was used to elute lysozyme from the beads at a flow rate of 0.84 ml/min for 20.6 hours. The eluted solution was collected in fractions, and the elution fractions were analyzed with HPLC for lysozyme concentration using a Vydac C18 HPLC column. For the high-salt elution, the remaining lysozyme in the beads was then eluted with the high-salt elution buffer at a rate of […].
The amount of lysozyme protein that eluted with the PBS wash was 39.51 mg and, from the high salt elution, the amount of lysozyme was 40.34 mg. Accumulated percent lysozyme release (Y) was plotted against elution time (X).

Substance: lysozyme
- amount of lysozyme eluted in the elution buffer ([1]; control portion, immediately eluted with high salt elution buffer alone): 10.5 mg/ml wet beads
- amount of lysozyme eluted in the elution buffer ([1]; experimental portion (PBS washed beads, 19.6 hours), high salt elution buffer 1.0M ammonium sulfate, 50 mM sodium phosphate, pH 7.2): 3.72 mg/ml beads
- amount of lysozyme released during the PBS wash ([1]; experimental portion, PBS pH 7.4 wash for 19.6 hours, UV detector): not detectable
- release rate (slope of accumulated percent release vs elution time) ([2]; PBS elution at 0.84 ml/min, line equation Y=1.49X+0.242): 1.49 %/hr
- amount of lysozyme protein eluted with the PBS wash ([2]; PBS pH 7.4, flow rate 0.84 ml/min for 20.6 hours, HPLC): 39.51 mg
- amount of lysozyme from the high salt elution ([2]; remaining lysozyme eluted with high-salt elution buffer after the PBS wash): 40.34 mg
